Data on one substance can be found in PMC7335206.

For experiment [1], the target named is N-terminal transactivation domain (TAD) of the tumor suppressor protein p53, labeled with Alexa 488 and Alexa 594, biotinylated. Briefly: FRET or BRET; single-molecule three-color FRET, CW donor excitation; biotinylated TAD immobilized on PEG-coated glass via NeutrAvidin, 25 nM NCBD in solution; 10 mM Tris pH 7, 0 mM NaCl, 23 °C; maximum likelihood analysis of photon trajectories, 8-state model with acceptor blinking. (In general: In BRET a luciferase serves as donor, and the signal depends on an acceptor being close.)

For experiment [2] the target is unchanged. The experiment is described as follows: FRET or BRET; single-molecule three-color FRET, CW donor excitation; biotinylated TAD immobilized on PEG-coated glass via NeutrAvidin, 100 nM NCBD in solution; 10 mM Tris pH 7, 10 mM NaCl, 23 °C; maximum likelihood analysis of photon trajectories, 8-state model with acceptor blinking.
For experiment [3] the target is unchanged. Briefly: FRET or BRET; single-molecule three-color FRET, CW donor excitation; biotinylated TAD immobilized on PEG-coated glass via NeutrAvidin, 200 nM NCBD in solution; 10 mM Tris pH 7, 30 mM NaCl, 23 °C; maximum likelihood analysis of photon trajectories, 8-state model with acceptor blinking.

With “nuclear coactivator binding domain (NCBD) of the CREB binding protein (CBP), S2066C, labeled with CF680R (domain or fragment)”, the Kd was determined as 123 nM in experiment [1], 520 nM in experiment [2] and 2480 nM in experiment [3]. The on-rate constant (kon) in experiment [1] came to 2.04e+09 M⁻¹ s⁻¹; in experiment [2], 9.1e+08 M⁻¹ s⁻¹; in experiment [3], 5.2e+08 M⁻¹ s⁻¹.

For orientation: Kd means a measure of binding affinity in units of concentration. Lower therefore signals tighter binding. As a reminder, the kon is the second-order rate constant of association. A low value points to slower complex formation.
